The values below are quoted from earlier work in article PMC8241641 (European Journal of Nuclear Medicine and Molecular Imaging, 2021).

Details of the data set: method as in PMID 28864620.

[^177Lu]Lu-DOTA-TATE: the “Dose to the bone marrow typically calculated” value is 0.03–0.07 Gy/GBq.
